Data taken from the nanobody polyreactivity screen of Harvey et al. (2022).

assay: yeast display, Sf9 membrane polyspecificity reagent, FACS + sequencing; frameworks hold sequencing errors
Method in brief: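 Galactose induction of a Saccharomyces cerevisiae BJ5465 synthetic nanobody display library ran 36–48 hours. The cells were then stained for 1 hour at 4 °C with 10% biotinylated, detergent-solubilized Sf9 membrane reagent, pulled down on streptavidin microbeads and FACS-sorted into low and high (top ~1%) gates on expression and reagent-binding fluorescence. Labels for polyreactivity follow the gate of origin.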

Row | Sequence | polyreactivity (PSR sort gate)
1 | QVHLVESGGGLVQAGGSLRISCAASGFTFVWYAMGWYRPPPGKERELVAALSRRGTRTYYADSVKGRFSISRDNAKNTVYLQMNSLKPEDTAVYYSAASNGYEAVTYDYWGQGTQVTVSS | high polyreactivity
2 | QVQLVESGGGLVQAGGSLRLSCAASGSIFGGNDMGWSRQAPGKERAWVAAITATSGSTYYADSVKGRFTISRDNAKNTVYLQMNSLKPEDTAVYYCAAKPVGTYSRPHDYWGQGTQVTVSS | low polyreactivity
3 | QVQLVESGGGLVQAGGSLRLSCAASGRTFYVYAMGWYRQAPGKERELVAAISWSGGSTYYADSVKGRFTISRDNAKNTVYLQMNSLKPEDTAVYYCAAQTYQRHVVAYDYWGQGTQVTVSS | low polyreactivity
4 | QVQLVESGGGLVQAGGSLRLSCAASGRTSSIYTMGWYRQAPGKERELVAAIRGRGGNTYYADSVKGRFTISRDYAKNTVYLLMNSLKPEDTAVYYCNAKPQGVGLYRYEYWGQGTQVTVSS | high polyreactivity
5 | QVQLVESGGGLVQAGGSLRLSCAASGITFDYYAMGWYRQAPGKERELVAAISRSGGSTYYADSVKGRFTISRDKAKNTVYLQMNSLKPEDTAVYYCAAYALTIRAYYYWGQGTQVTVSS | high polyreactivity
6 | QVQLVQSRGGLVQAGGSLRLSCSASGFIFIYNVMGWYRQAPGKERDMVAAINRGGSTKYADSVKGRFTISRDNAKITVYLQMNSLKPEDSAVYYCAARYDGSRYHYDGYDYWGQGTQVTVSS | low polyreactivity
7 | QVQLVESGGGLVQAGGSRRLSCAASGRTFYYAMGWYRQAPGKETQLVATITSGGGSTYYADSVKGRFSISRDNAKNTVYLQMNSLKPEDTAVYYCAADYKSSPPLPEYDYWGQGTQVTVSS | high polyreactivity
8 | QDQLEESGVGLLQAGGSLRLSCAASGNTFFVNDMGWYRHAPRKERELLAVISINGDSTFYADSVKGRFTISRDNAKNTVYLQMNSLKPEDTAVYYCAADFRRVFCKYSYYLYFEFDYWGQGTQVTVSS | low polyreactivity
9 | QVQLVESGGCLVQAGGSLRLSCAASGRIFRTYTMGWYRQAPGKERELVAAITWNGGSTYYADSVKGRFTISRDNAKNTVYLQMNSLKPEDTAVYYCIADRHYSAYPLYDYWGQGTQVTVSS | low polyreactivity
10 | QVQLVESGGGLVQAGGSLRLSCAASGFTFRFYAMGWYRQAPGKERELVAAISRSGGDTYYADSVKGRFTISRDNAKNTVYLQMNSLKPEDTAVYYCNKATYRVAGRDFDYWGHGTQVTVSS | high polyreactivity
11 | QVQLVESGGGLVQAGGSLRLSCAASGSILWYNGLGWYRQAPGKEMELVAAITSGGSTNYADSVKGRFTISRDNAKNTVYLQMNSLKQEDTAVYYCATRHSKYGYEYDYWGQGTQVTVSS | low polyreactivity
12 | QVQLVESGGGLVQAGGSLRLSCAASGFTFRYYAMGWYRQAPGKEREFVAAISRGGGTTYYADSVKGRFTISRDNAKNTVYLQMNSLKPEDTAVYYCATRALYWRYGYDYWGQGTQVTVSS | high polyreactivity
13 | QVQLVESGGGLVQAGGSLRLSCAASGRIFYNYAMGWYRQAPGKERELVAAISGSGGSTYYADSVKGRFTISRDNAKNTVYLQMNSLKPEDTAVYYCAADSYVSPEVRFDYWGQGTQVTVSS | low polyreactivity
14 | QVQLVDSGGGLVQAGGSLRLSCAASGRIFPVYAMAWYRHAPGKEREMVAAITKSGGNTYYADSVKGRFTISRDNAKYTVYLQMNSMKPEDTAVYYCAADSSAKMGPQYYYALDYWGQGTKVTVSS | low polyreactivity
15 | QLQLVESGGGVVQAGGSLRLSCAATGRIDWNTMGWYRQAPGKERELVASISTGGGRTYYADSVKGRFTISRDNAKNTVYLQMISLKPEDTAVFYCNAVRTVWYRYEYGYWGQGTQVTVSS | high polyreactivity
16 | QVQLVESGGGLVQSGGSLRLSCAASGYIVRNAMGWYRQAPVKERELVAAITWSGGSTYYADSVKGRFTISRDNAKNTVYLQMNSLKPEDTAVYYCNARRNVRQTFGYEYWGQGTQVTVSS | high polyreactivity
